Data from publication PMC9971246, “The activation mechanism and antibody binding mode for orphan GPR20” (Cell Discovery, 2023).

Target: T1, N-terminal BRIL-fused wild-type human GPR20 (human, UniProt Q99678)
T1 construct: human GPR20, wild type, UniProt Q99678; codon-optimized gene in pFastBac1; Construct order: haemagglutinin signal peptide, Flag tag, BRIL, GPR20, HRV 3C protease site, 10x His; No cleavage with HRV 3C is described; BRIL is written as a carrier under tags, not as a part; also called WT GPR20; ligand-free GPR20; source: Trichuplusia ni Hi5 insect cells (baculovirus), co-expressed with DNGαi and …
Experiment: cryo-EM structure; GPR20-Gi-Fab046 complex, pair of Fab046 and GPR20; TALON eluate (GPR20-Gi complex) mixed with purified Fab046 1:1.5 for 6 h, SEC in 20 mM HEPES pH 7.5, 100 mM NaCl, LMNG/GDN/CHS, 100 μM TCEP; 3.22 Å
Settings: both partners purified

T1 sequence (Q99678 whole entry, the tested form may be a part): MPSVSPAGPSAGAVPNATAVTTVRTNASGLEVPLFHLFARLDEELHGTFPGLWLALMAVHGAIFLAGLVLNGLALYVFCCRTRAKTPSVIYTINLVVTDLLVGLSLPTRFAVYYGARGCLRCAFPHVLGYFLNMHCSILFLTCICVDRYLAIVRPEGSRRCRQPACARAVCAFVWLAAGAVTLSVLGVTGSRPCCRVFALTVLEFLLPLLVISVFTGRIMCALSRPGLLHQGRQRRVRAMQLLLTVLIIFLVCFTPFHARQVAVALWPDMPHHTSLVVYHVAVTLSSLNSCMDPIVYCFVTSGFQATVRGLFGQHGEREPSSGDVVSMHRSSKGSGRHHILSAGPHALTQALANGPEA

B1: Fab046, Fab fragment of the anti-GPR20 antibody Ab046 (Fab, V domains shown)
VH: QVQLQQSGAELAKPGSSVKISCKASGYTFTSYYISWIKQTTGQGLKYIGFINPGSGHTNYNEKFKGKATLTVDKSSSTAFMQLSSLTPDDSAIYYCARGAGGFLRIITKFDYWGQGVMVTVSS
VL: DTVLTQSPALAVSLGQRVTISCRASKSVSTYIHWYQQRSGQQPKLLIYSASNLESGVPSRFSGSGSGTDFTLTIDPVEPDDIANYYCQQINELPYTFGAGTKLELK
notes: modelled in the deposited structures PDB 8HS2 (VH + CH1) and PDB 8HSC (VH); modelled in the deposited structures PDB 8HS2 (intact light chain) and PDB 8HSC (VL); also called IgG046; source: Trichuplusia ni Hi5 insect cells (baculovirus, pFastBacDual), from the supernatant, purified (Ni-NTA, SEC)
  binding result: binds
